From paper PMC7851689, “Expanding the Enzyme Repertoire for Sugar Nucleotide Epimerization: the CDP-Tyvelose 2-Epimerase from Thermodesulfatator atlanticus for Glucose/Mannose Interconversion” (Applied and Environmental Microbiology, 2021)

What was measured:
[1] = target: CDP-tyvelose 2-epimerase-like enzyme from Thermodesulfatator atlanticus (TaCPa2E) (Thermodesulfatator atlanticus); experiment: SEC; gel filtration of the purified C-terminally His-tagged protein; conditions not shown (Fig. S3 and S4, supplemental material)
purified protein [2] = substrate: Nc1ccn([C@@H]2O[C@H](COP(=O)(O)OP(=O)(O)O[C@H]3O[C@H](CO)[C@@H](O)[C@H](O)[C@H]3O)[C@@H](O)[C@H]2O)c(=O)n1; experiment: purified protein; conditions: pH 7.5; 60.0 °C
purified protein [3] = substrate: Nc1ccn([C@@H]2O[C@H](COP(=O)(O)OP(=O)(O)O[C@H]3O[C@H](CO)[C@@H](O)[C@H](O)[C@@H]3O)[C@@H](O)[C@H]2O)c(=O)n1; experiment: purified protein; conditions: pH 7.5; 60.0 °C

| stoichiometry N [1] | Molecule | Km (purified protein [2]) | Km (purified protein [3]) |
| --- | --- | --- | --- |
| 2 | CDP-tyvelose 2-epimerase-like enzyme from Thermodesulfatator atlanticus (TaCPa2E) |  |  |
|  | TaCPa2E (Thermodesulfatator atlanticus) (protein) MKYLITGGCGFLGSNLASEVLRKREELIIFDNLYRIGSYENLEWLKQQGDFRFVHGDIRNREDIEKVIKEEKPDVIFHLAGQVAMTTSIENPRLDFEVNALGTFNLLDAVRKYSPESIIIYSSTNKVYGDLGWVRYEETETRYIAPDFPNGFPESIPLDFHSPYGCSKGAADQYMLDFCRIYGIKTVVFRHSSMYGGRQFATYDQGWIGWFCLKAIEIKKGLLKEPFTIHGNGKQVRDVLYADDMIELYFKTIENIEKAKGEAFNIGGGMENSLSLLELFSLLEKELDIKMRYKKLPWRESDQKIFVADIRKAQKLIGWQPKVSKYNGIQKMLEWIKKLV | 320 ± 20 µM | 310 ± 10 µM |
